Laboratory results reported in publication doi:10.1101/2023.01.28.526015.
Where two headings read alike, the source gives them in different places.

Assays:
[1] = target: DesAOMT, O-methyltransferase from Desulfuromonas acetoxidans (Desulfuromonas acetoxidans); assay: crystal structure
[2] = target: DesAOMT, O-methyltransferase from Desulfuromonas acetoxidans (Desulfuromonas acetoxidans); assay: SEC
[3] = target: StrAOMT, O-methyltransferase from Streptomyces avermitilis (Streptomyces avermitilis); assay: crystal structure
[4] = target: StrAOMT, O-methyltransferase from Streptomyces avermitilis (Streptomyces avermitilis); assay: crystal structure; remark: listed apart in the source

Substance | stoichiometry N [1] | stoichiometry N [2] | stoichiometry N [3] | stoichiometry N [4]
DesAOMT, O-methyltransferase from Desulfuromonas acetoxidans (enzyme) | 2 | 2 | – | –
StrAOMT, O-methyltransferase from Streptomyces avermitilis (enzyme) | – | – | 2 | 2
